# Test results taken from patent US20180177842A1 (CANIMGUIDE THERAPEUTICS, published 2018).
# T1: P3028 (VFDEFKPLVEEPQNLIK, SEQ ID NO: 185), His-tagged (human)
# T1 construct: Synthetic fragment of human serum albumin (positions 397-413); used in solution as His-tagged peptide PGE73; also called PGE73; not shown: His-tag
# T1 peptide: VFDEFKPLVEEPQNLIK
# Biological target: T1, P3028 (VFDEFKPLVEEPQNLIK, SEQ ID NO: …)
# Assay: PEPSCAN ELISA; peptide on chip, His-P3028 added;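 also: peroxidase color development with ABTS and H2O2 substrate, OD405 imaged by CCD camera with image processing and taken as raw values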
row,RAMPO Score,Binder
1,466 rampo units,AKLDTFFVKLSLFTER [AKLDTFFVKLSLFTER (SEQ ID NO: 268)]
2,271 rampo units,KKLDTFFQKLSLFTER [KKLDTFFQKLSLFTER (SEQ ID NO: 513)]
3,341 rampo units,KKLDTFFVKLCLFTER [KKLDTFFVKLCLFTER (SEQ ID NO: 457)]
4,475 rampo units,KKLDMFFVKLSLFTER [KKLDMFFVKLSLFTER (SEQ ID NO: 305)]
5,349 rampo units,KELDTFFVKLSLFTER [KELDTFFVKLSLFTER (SEQ ID NO: 441)]
6,449 rampo units,KKLDCFFVKLSLFTER [KKLDCFFVKLSLFTER (SEQ ID NO: 304)]
7,379 rampo units,KKLDTFFGKLSLFTER [KKLDTFFGKLSLFTER (SEQ ID NO: 327)]
8,295 rampo units,KCLDTFFVKLSLFTER [KCLDTFFVKLSLFTER (SEQ ID NO: 499)]
9,299 rampo units,KKLDTFFAKLSLFTER [KKLDTFFAKLSLFTER (SEQ ID NO: 495)]
10,332 rampo units,FKLDTFFVKLSLFTER [FKLDTFFVKLSLFTER (SEQ ID NO: 465)]
11,430 rampo units,KKLDRFFVKLSLFTER [KKLDRFFVKLSLFTER (SEQ ID NO: 309)]
12,426 rampo units,KKLDTFFVKASLFTER [KKLDTFFVKASLFTER (SEQ ID NO: 332)]
13,563 rampo units,KKGDTFFVKLSLFTER [KKGDTFFVKLSLFTER (SEQ ID NO: 287)]
14,240 rampo units,KKLDTFFVELSLFTER [KKLDTFFVELSLFTER (SEQ ID NO: 527)]
15,393 rampo units,KKFDTFFVKLSLFTER [KKFDTFFVKLSLFTER (SEQ ID NO: 286)]
16,293 rampo units,KKLDIFFVKLSLFTER [KKLDIFFVKLSLFTER (SEQ ID NO: 501)]
17,428 rampo units,HKLDTFFVKLSLFTER [HKLDTFFVKLSLFTER (SEQ ID NO: 272)]
18,367 rampo units,GKLDTFFVKLSLFTER [GKLDTFFVKLSLFTER (SEQ ID NO: 271)]
19,358 rampo units,KKLDTFFFKLSLFTER [KKLDTFFFKLSLFTER (SEQ ID NO: 326)]
20,426 rampo units,KKLDTFAVKLSLFTER [KKLDTFAVKLSLFTER (SEQ ID NO: 404)]
21,391 rampo units,KKLDHFFVKLSLFTER [KKLDHFFVKLSLFTER (SEQ ID NO: 420)]
22,432 rampo units,KKCDTFFVKLSLFTER [KKCDTFFVKLSLFTER (SEQ ID NO: 283)]
23,301 rampo units,KKLDTFDVKLSLFTER [KKLDTFDVKLSLFTER (SEQ ID NO: 492)]
24,458 rampo units,KKLDSFFVKLSLFTER [KKLDSFFVKLSLFTER (SEQ ID NO: 310)]

row,RAMPO Score,Binder
1,295 rampo units,KKLDDFFVKLSLFTER [KKLDDFFVKLSLFTER (SEQ ID NO: 500)]
2,436 rampo units,KKLDNFFVKLSLFTER [KKLDNFFVKLSLFTER (SEQ ID NO: 306)]
3,365 rampo units,KKLDTFFRKLSLFTER [KKLDTFFRKLSLFTER (SEQ ID NO: 330)]
4,293 rampo units,KKLDTFFVKHSLFTER [KKLDTFFVKHSLFTER (SEQ ID NO: 502)]
5,254 rampo units,KKLDTFFCKLSLFTER [KKLDTFFCKLSLFTER (SEQ ID NO: 519)]
6,528 rampo units,KKEDTFFVKLSLFTER [KKEDTFFVKLSLFTER (SEQ ID NO: 285)]
7,411 rampo units,KKLDTFFLKLSLFTER [KKLDTFFLKLSLFTER (SEQ ID NO: 328)]
8,403 rampo units,KKLDTFFVKFSLFTER [KKLDTFFVKFSLFTER (SEQ ID NO: 333)]
9,494 rampo units,KKLATFFVKLSLFTER [KKLATFFVKLSLFTER (SEQ ID NO: 298)]
10,427 rampo units,KKLDPFFVKLSLFTER [KKLDPFFVKLSLFTER (SEQ ID NO: 307)]
11,335 rampo units,KDLDTFFVKLSLFTER [KDLDTFFVKLSLFTER (SEQ ID NO: 461)]
12,309 rampo units,KALDTFFVKLSLFTER [KALDTFFVKLSLFTER (SEQ ID NO: 485)]
13,285 rampo units,KKLDTFFVKKSLFTER [KKLDTFFVKKSLFTER (SEQ ID NO: 506)]
14,401 rampo units,KKLDTFFIKLSLFTER [KKLDTFFIKLSLFTER (SEQ ID NO: 416)]
15,322 rampo units,KKLDTFFVKLDLFTER [KKLDTFFVKLDLFTER (SEQ ID NO: 474)]
16,386 rampo units,KKKDTFFVKLSLFTER [KKKDTFFVKLSLFTER (SEQ ID NO: 290)]
17,411 rampo units,KKLDTFCVKLSLFTER [KKLDTFCVKLSLFTER (SEQ ID NO: 409)]
18,341 rampo units,KKLDEFFVKLSLFTER [KKLDEFFVKLSLFTER (SEQ ID NO: 456)]
19,373 rampo units,DKLDTFFVKLSLFTER [DKLDTFFVKLSLFTER (SEQ ID NO: 269)]
20,318 rampo units,KKLDTFFVKLALFTER [KKLDTFFVKLALFTER (SEQ ID NO: 477)]
21,396 rampo units,EKLDTFFVKLSLFTER [EKLDTFFVKLSLFTER (SEQ ID NO: 270)]
22,454 rampo units,KKIDTFFVKLSLFTER [KKIDTFFVKLSLFTER (SEQ ID NO: 289)]
23,344 rampo units,KKLCTFFVKLSLFTER [KKLCTFFVKLSLFTER (SEQ ID NO: 449)]
24,477 rampo units,KKHDTFFVKLSLFTER [KKHDTFFVKLSLFTER (SEQ ID NO: 288)]

row,RAMPO Score,Binder
1,390 rampo units,KFLDTFFVKLSLFTER [KFLDTFFVKLSLFTER (SEQ ID NO: 421)]
2,575 rampo units,KKLDTAFVKLSLFTER [KKLDTAFVKLSLFTER (SEQ ID NO: 313)]
3,405 rampo units,KGLDTFFVKLSLFTER [KGLDTFFVKLSLFTER (SEQ ID NO: 412)]
4,331 rampo units,KILDTFFVKLSLFTER [KILDTFFVKLSLFTER (SEQ ID NO: 467)]
5,311 rampo units,KKLDLFFVKLSLFTER [KKLDLFFVKLSLFTER (SEQ ID NO: 484)]
6,237 rampo units,KKLDKFFVKLSLFTER [KKLDKFFVKLSLFTER (SEQ ID NO: 530)]
7,427 rampo units,KKADTFFVKLSLFTER [KKADTFFVKLSLFTER (SEQ ID NO: 282)]
8,298 rampo units,KKLDTFFTKLSLFTER [KKLDTFFTKLSLFTER (SEQ ID NO: 496)]
9,335 rampo units,KKLDTCFVKLSLFTER [KKLDTCFVKLSLFTER (SEQ ID NO: 462)]
10,306 rampo units,KKLDTFFVHLSLFTER [KKLDTFFVHLSLFTER (SEQ ID NO: 488)]
11,283 rampo units,KKLDTFFVKCSLFTER [KKLDTFFVKCSLFTER (SEQ ID NO: 508)]
12,456 rampo units,KKLDTFFPKLSLFTER (also called 32251) [KKLDTFFPKLSLFTER (SEQ ID NO: 329)]
13,346 rampo units,KKLDAFFVKLSLFTER [KKLDAFFVKLSLFTER (SEQ ID NO: 447)]
14,234 rampo units,KKLDTFFVKLELFTER [KKLDTFFVKLELFTER (SEQ ID NO: 532)]
15,483 rampo units,IKLDTFFVKLSLFTER [IKLDTFFVKLSLFTER (SEQ ID NO: 273)]
16,394 rampo units,KHLDTFFVKLSLFTER [KHLDTFFVKLSLFTER (SEQ ID NO: 418)]
17,381 rampo units,KKLDTFEVKLSLFTER [KKLDTFEVKLSLFTER (SEQ ID NO: 424)]
18,290 rampo units,KKLDFFFVKLSLFTER [KKLDFFFVKLSLFTER (SEQ ID NO: 504)]
19,386 rampo units,KKLDGFFVKLSLFTER [KKLDGFFVKLSLFTER (SEQ ID NO: 95)]
20,535 rampo units,KKLDQFFVKLSLFTER [KKLDQFFVKLSLFTER (SEQ ID NO: 308)]
21,492 rampo units,KKDDTFFVKLSLFTER [KKDDTFFVKLSLFTER (SEQ ID NO: 284)]
22,495 rampo units,KKLDTFFVKGSLFTER [KKLDTFFVKGSLFTER (SEQ ID NO: 334)]
23,415 rampo units,KKLDTFFVKISLFTER [KKLDTFFVKISLFTER (SEQ ID NO: 335)]
